From US20100261872A1, “Factor VIII: remodeling and glycoconjugation of factor VIII” (Neose Technologies, Inc., published 2010)

What was measured:
[1] = biological target: Recombinant human erythropoietin (rhEPO) from the baculovirus/Sf9 expression system (Protein Sciences) (human)
[2] = biological target: Cri-IgG1 monoclonal antibody (non-recombinant, isolated from a human myeloma) (human)
[3] = biological target: Fc Cri-IgG1 (Cri-IgG1 treated with a protease so that only the Fc portion remained) (human)
[4] = biological target: Recombinant human erythropoietin (rhEPO) from the baculovirus/Sf9 expression system (Protein Sciences) (human); remark: listed apart in the source
Target sequence in this assay (chain, as listed by the source): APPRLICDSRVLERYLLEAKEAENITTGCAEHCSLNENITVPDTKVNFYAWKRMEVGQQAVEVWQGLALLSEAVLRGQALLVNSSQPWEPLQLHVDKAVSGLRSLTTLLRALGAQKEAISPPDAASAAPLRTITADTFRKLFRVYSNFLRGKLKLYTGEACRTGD

[5] = biological target: Ribonuclease B (RNaseB) purified from bovine pancreas (Sigma) (bovine) (UniProt P61823)
[6] = biological target: Recombinant human erythropoietin (rhEPO) from the baculovirus/Sf9 expression system (Protein Sciences) (human); remark: listed apart in the source
[7] = biological target: Cri-IgG1 monoclonal antibody (non-recombinant, isolated from a human myeloma) (human); remark: listed apart in the source
[8] = biological target: Fc Cri-IgG1 (Cri-IgG1 treated with a protease so that only the Fc portion remained) (human); remark: listed apart in the source
[9] = biological target: Cri-IgG1 monoclonal antibody (non-recombinant, isolated from a human myeloma) (human); remark: listed apart in the source
[10] = biological target: Fc Cri-IgG1 (Cri-IgG1 treated with a protease so that only the Fc portion remained) (human); remark: listed apart in the source
[11] = biological target: Recombinant human erythropoietin (rhEPO) from the baculovirus/Sf9 expression system (Protein Sciences) (human); remark: listed apart in the source
Target sequence in this assay (chain, as listed by the source): as above

[12] = biological target: Cri-IgG1 monoclonal antibody (non-recombinant, isolated from a human myeloma) (human); remark: listed apart in the source
[13] = biological target: Fc Cri-IgG1 (Cri-IgG1 treated with a protease so that only the Fc portion remained) (human); remark: listed apart in the source
[14] = biological target: Ribonuclease B (RNaseB) purified from bovine pancreas (Sigma) (bovine) (UniProt P61823); remark: listed apart in the source
[15] = biological target: ATIII (Antithrombin III) from Genzyme Transgenics (human)
[16] = biological target: asialo-α1 Antitrypsin (PPL) (human)
[17] = biological target: Recombinant human erythropoietin (rhEPO) from the baculovirus/Sf9 expression system (Protein Sciences) (human); remark: listed apart in the source
Target sequence in this assay (chain, as listed by the source): as above

Sequence of Ribonuclease B (RNaseB) purified from bovine pancreas (Sigma) (bovine) (P61823 27-150): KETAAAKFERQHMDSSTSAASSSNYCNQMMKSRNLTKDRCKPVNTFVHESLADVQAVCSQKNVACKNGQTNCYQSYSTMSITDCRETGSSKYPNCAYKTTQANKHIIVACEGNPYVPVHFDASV
Sequence of asialo-α1 Antitrypsin (PPL) (human) (chain, as listed by the source limits assumed): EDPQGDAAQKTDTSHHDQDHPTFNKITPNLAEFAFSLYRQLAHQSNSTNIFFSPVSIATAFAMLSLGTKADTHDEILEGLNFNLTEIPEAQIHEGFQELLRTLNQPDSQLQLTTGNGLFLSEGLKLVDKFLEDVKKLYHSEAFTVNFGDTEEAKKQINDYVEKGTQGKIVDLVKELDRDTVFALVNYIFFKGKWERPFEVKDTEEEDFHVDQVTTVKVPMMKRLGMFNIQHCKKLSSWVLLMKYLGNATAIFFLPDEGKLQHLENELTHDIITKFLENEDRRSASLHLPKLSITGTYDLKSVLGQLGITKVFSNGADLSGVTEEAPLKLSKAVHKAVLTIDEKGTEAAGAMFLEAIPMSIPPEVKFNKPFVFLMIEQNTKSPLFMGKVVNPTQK

Which conversion to the tri-antennary glycan (2AA HPLC) [1] does the source give for GnT-V (enzyme) here?
Its conversion to the tri-antennary glycan (2AA HPLC) is 92%.

Which results are given for “GalT1 (β1,4 galactosyltransferase 1) (from UniProt P08037) (enzyme)”?
relative amount of the G2 glycoform by CE [2]: 90%; relative amount of the G2 glycoform by CE [3]: 84%; released glycans with terminal galactose (HPLC, MALDI) [4]: 97%; addition of Gal; MALDI-TOF [5]: 98%

With “ST6Gal1 (α2,6-sialyltransferase) (enzyme)” as the molecule, how does the incorporation of radiolabelled sialic acid (% of the radiolabel) [6] read?
Its incorporation of radiolabelled sialic acid (% of the radiolabel) is 5.7.

With “β-N-acetylhexosaminidase (from Jack Bean, Seikagaku) (enzyme)” as the molecule, how does the relative amount of the M3N2F glycoform by CE [7] read?
The relative amount of the M3N2F glycoform by CE was 91.4%.

And the relative amount of the M3N2F glycoform by CE [8]?
Its relative amount of the M3N2F glycoform by CE is 100%.

B1: GnT-II (β1,2-mannosyl-UDP-N-acetylglucosaminosyltransferase II) (enzyme)
chain: RQRKNEALAPPLLDAEPARGAGGRGGDHPSVAVGIRRVSNVSAASLVPAVPQPEADNLTLRYRSLVYQLNFDQTLRNVDKAGTWAPRELVLVVQVHNRPEYLRLLLDSLRKAQGIDNVLVIFSHDFWSTEINQLIAGVNFCPVLQVFFPFSIQLYPNEFPGSDPRDCPRDLPKNAALKLGCINAEYPDSFGHYREAKFSQTKHHWWWKLHFVWERVKILRDYAGLILFLEEDHYLAPDFYHVFKKMWKLKQQECPECDVLSLGTYSASRSFYGMADKVDVKTWKSTEHNMGLALTRNAYQKLIECTDTFCTYDDYNWDWTLQYLTVSCLPKFWKVLVPQIPRIFHAGDCGMHHKKTCRPSTQSAQIESLLNNNKQYMFPETLTISEKFTVVAISPPRKNGGWGDIRDHELCKSYRRLQ
B1 was tested. Which % peak area of the bisecting (NGA2F) glycoform by CE [9] did it give?
Its % peak area of the bisecting (NGA2F) glycoform by CE is 63.6%.

And the % peak area of the bisecting (NGA2F) glycoform by CE [10]?
Its % peak area of the bisecting (NGA2F) glycoform by CE is 58.4%.

What about the completion of the bi-antennary GlcNAc glycan (HPLC, MALDI) [11] of the same molecule?
The completion of the bi-antennary GlcNAc glycan (HPLC, MALDI) was over 99%.

B2: GnT-III (β1,4-mannosyl-UDP-N-acetylglucosaminosyltransferase III) (enzyme)
chain: HFFKTLSYVTFPRELASLSPNLISSFFWNNAPVTPQASPEPGDPDLLRTPLYSHSPLLQPLSPSKATEELHRVDFVLPEDTTEYFVRTKAGGVCFKPGTRMLEKPSPGRTEEKTEVSEGSSARGPARRPMRHVLSSRERLGSRGTRRKWVECVCLPGWHGPSCGVPTVVQYSNLPTKERLVPREVPRRVINAININHEFDLLDVRFHELGDVVDAFVVCDSNFTAYGEPRPLKFREMLTNGTFEYIRHKVLYVFLDHFPPGGRQDGWIADDYLRTFLTQDGVSRLRNLRPDDVFIIDDADEIPARDGVLFLKLYDGWTEPFAFHMRKSLYGFFWKQPGTLEVVSGCTMDMLQAVYGLDGIRLRRRQYYTMPNFRQYENRTGHILVQWSLGSPLHFAGWHCSWCFTPEGIYFKLVSAQNGDFPRWGDYEDKRDLNYIRSLIRTGGWFDGTQQEYPPADPSEHMYAPKYLLKNYDQFRYLLENPYREPKSTVEGGRQNQGSDGRSSAVRGKLDTAEG
What does the source list for B2?
% peak area of the bisecting (NGA2F) glycoform by CE [9]: 63.6%; % peak area of the bisecting (NGA2F) glycoform by CE [10]: 58.4%

B3: ST3Gal III (α2,3-sialyltransferase, EC 2.4.99.6) (enzyme)
chain: KLHLLQWEDSNSLILSLDSAGQTLGTEYDRLGFLLKLDSKLPAELATKYANFSEGACKPGYASAMMTAIFPRFSKPAPMFLDDSFRKWARIREFVPPFGIKGQDNLIKAILSVTKEYRLTPALDSLHCRRCIIVGNGGVLANKSLGSRIDDYDIVIRLNSAPVKGFEKDVGSKTTLRITYPEGAMQRPEQYERDSLFVLAGFKWQDFKWLKYIVYKERVSASDGFWKSVATRVPKEPPEIRILNPYFIQEAAFTLIGLPFNNGLMGRGNIPTLGSVAVTMALDGCDEVAVAGFGYDMNTPNAPLHYYETVRMAAIKESWTHNIQREKEFLRKLVKARVITDLSSGI
What does the source list for B3?
relative amount of the S2G2 glycoform by HPLC (peak at 49.4 min) [12]: 58.9%; relative amount of the S2G2 glycoform by HPLC (peak at 49.4 min) [13]: 61.9%; addition of sialic acid; MALDI-TOF [14]: 90%; incorporation of radiolabelled sialic acid [6]: 10.9 moles/mole; % Rxn (completion of sialylation by 14C-NeuAc incorporated, against terminal Gal content) [15]: 117%; % Rxn (completion of sialylation by 14C-NeuAc incorporated, against terminal Gal content) (Asialo-fetuin (Sigma)): 116%; % Rxn (completion of sialylation by 14C-NeuAc incorporated, against terminal Gal content) [16]: 100%

B4: GnT-I (β1,2-mannosyl-UDP-N-acetylglucosaminosyltransferase I) (enzyme)
chain: TRPAPGRPPSVSALDGDPASLTREVIRLAQDAEVELERQRGLLQQIGDALSSQRGRVPTAAPPAQPRVPVTPAPAVIPILVIACDRSTVRRCLDKLLHYRPSAELFPIIVSQDCGHEETAQAIASYGSAVTHIRQPDLSSIAVPPDHRKFQGYYKIARHYRWALGQVFRQFRFPAAVVVEDDLEVAPDFFEYFRATYPLLKADPSLWCVSAWNDNGKEQMVDASRPELLYRTDFFPGLGWLLLAELWAELEPKWPKAFWDDWMRRPEQRQGRACIRPEISRTMTFGRKGVSHGQFFDQHLKFIKLNQQFVHFTQLDLSYLQREAYDRDFLARVYGAPQLQVEKVRTNDRKELGEVRVQYTGRDSFKAFAKALGVMDDLKSGVPRAGYRGIVTFQFRGRRVHLAPPLTWEGYDPSWN
Which conversion of the tri-mannosyl glycoform to 'tri-mannosyl core+2 GlcNAc' (2-AA HPLC) [17] does the source give for B4 here?
Its conversion of the tri-mannosyl glycoform to 'tri-mannosyl core+2 GlcNAc' (2-AA HPLC) is 100%.
